Data taken from patent publication US20220259605A1 (OXFORD UNIVERSITY INNOVATION, published 2022).

Molecular target: T1, human CEACAM5 protein (SinoBiological) (human, UniProt P06731 35-685)
T1 construct: also called human CEA protein; carcinoembryonic antigen
T1 sequence: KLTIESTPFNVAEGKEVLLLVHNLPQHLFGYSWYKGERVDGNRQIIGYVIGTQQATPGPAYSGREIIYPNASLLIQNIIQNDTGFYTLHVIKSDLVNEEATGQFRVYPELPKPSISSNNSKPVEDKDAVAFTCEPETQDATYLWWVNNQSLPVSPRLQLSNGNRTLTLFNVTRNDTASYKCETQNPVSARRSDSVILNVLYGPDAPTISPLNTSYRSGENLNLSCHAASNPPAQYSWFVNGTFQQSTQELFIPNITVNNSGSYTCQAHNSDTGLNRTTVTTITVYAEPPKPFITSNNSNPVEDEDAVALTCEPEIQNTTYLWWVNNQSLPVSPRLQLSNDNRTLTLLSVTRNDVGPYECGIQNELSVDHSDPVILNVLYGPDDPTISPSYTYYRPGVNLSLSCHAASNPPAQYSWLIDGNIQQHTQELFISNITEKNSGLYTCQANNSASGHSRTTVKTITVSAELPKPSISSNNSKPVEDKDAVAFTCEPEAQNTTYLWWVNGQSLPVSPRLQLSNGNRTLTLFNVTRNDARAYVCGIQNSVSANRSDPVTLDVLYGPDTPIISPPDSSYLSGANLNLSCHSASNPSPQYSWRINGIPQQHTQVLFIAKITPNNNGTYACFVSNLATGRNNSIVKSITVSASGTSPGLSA
Experiment: biological agglutination test

B1: C43 anti-CEA nanobody, surface-displayed on E. coli through the pNV intimin display system (VHH)
VHH: EVQLVESGGGLVQAGGSLTLSCTSSTLTFTPYRMGWYRQTPGKQRDLVADISPGDGSTKNYAGFAQGRFTISRDNIKNTVYLQMNDLKPEDTAVYYCNTYVAFVGRARTWGQGTQVTVSS
notes: domain: β-intimin domain; also called pNVC43; pNVC43_sfGFP
B1: binds.
